Data on seven molecules can be found in US20140087995A1 (published 2014).

As a reminder, the IC50 is the concentration needed to halve the response being measured.

First the molecules themselves.
T1: human calcitonin receptor (human, UniProt P30988 25-474)
T1 sequence (looked up): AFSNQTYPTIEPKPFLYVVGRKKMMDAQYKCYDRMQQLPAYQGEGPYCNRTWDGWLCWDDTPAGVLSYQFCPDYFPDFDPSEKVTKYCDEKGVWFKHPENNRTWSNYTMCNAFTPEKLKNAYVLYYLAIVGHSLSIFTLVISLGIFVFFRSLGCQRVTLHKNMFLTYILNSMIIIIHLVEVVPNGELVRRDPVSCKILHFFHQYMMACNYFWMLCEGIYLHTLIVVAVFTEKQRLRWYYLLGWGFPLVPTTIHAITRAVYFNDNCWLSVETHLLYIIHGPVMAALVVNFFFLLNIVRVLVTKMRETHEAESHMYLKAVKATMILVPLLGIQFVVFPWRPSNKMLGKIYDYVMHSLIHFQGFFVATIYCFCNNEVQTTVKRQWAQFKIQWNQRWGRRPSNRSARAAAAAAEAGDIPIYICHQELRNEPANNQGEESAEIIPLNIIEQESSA

T2: human amylin 3(a) receptor (human calcitonin receptor co-expressed with RAMP-3) (human, UniProt P30988 25-474; O60896 24-148, limits assumed)
T2 sequence (looked up) 1: T1 sequence (looked up)
T2 sequence (looked up) 2: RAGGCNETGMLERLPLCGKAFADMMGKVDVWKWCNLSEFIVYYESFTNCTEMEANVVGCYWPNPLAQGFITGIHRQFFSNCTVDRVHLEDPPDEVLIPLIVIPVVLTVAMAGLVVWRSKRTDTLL

T3: human amylin receptor (amylin 3(a) receptor: human calcitonin receptor with RAMP-3) (human, UniProt P30988 25-474; O60896 24-148)
T3 construct: whole, on cells; also called hAmylin-R; hAmylinR
T3 sequence (looked up) 1: T1 sequence (looked up)
T3 sequence (looked up) 2: T2 sequence (looked up) 2

B1: N^ε1-[(4S)-4-carboxy-4-[[(4S)-4-carboxy-4-(19-carboxynonadecanoylamino)butanoyl]amino]butanoyl]-[Asp14,Arg17,Pro21,Pro27,Arg35]-h-amylin (peptide)
peptide: K([γGlu-γGlu-C20 diacid])CNTATCATQRLADFLRHSSPNFGAIPSSTNVGSRTY-NH2
modifications: disulfide 2-7; N-terminus assumed
SMILES: CC[C@H](C)[C@H](NC(=O)[C@H](C)NC(=O)CNC(=O)[C@H](Cc1ccccc1)NC(=O)[C@H](CC(N)=O)NC(=O)[C@@H]1CCCN1C(=O)[C@H](CO)NC(=O)[C@H](CO)NC(=O)[C@H](Cc1c[nH]cn1)NC(=O)[C@H](CCCNC(=N)N)NC(=O)[C@H](CC(C)C)NC(=O)[C@H](Cc1ccccc1)NC(=O)[C@H](CC(=O)O)NC(=O)[C@H](C)NC(=O)[C@H](CC(C)C)NC(=O)[C@H](CCCNC(=N)N)NC(=O)[C@H](CCC(N)=O)NC(=O)[C@@H](NC(=O)[C@H](C)NC(=O)[C@@H]1CSSC[C@H](NC(=O)[C@@H](N)CCCCNC(=O)CC[C@H](NC(=O)CC[C@H](NC(=O)CCCCCCCCCCCCCCCCCCC(=O)O)C(=O)O)C(=O)O)C(=O)N[C@@H](CC(N)=O)C(=O)N[C@@H]([C@@H](C)O)C(=O)N[C@@H](C)C(=O)N[C@@H]([C@@H](C)O)C(=O)N1)[C@@H](C)O)C(=O)N1CCC[C@H]1C(=O)N[C@@H](CO)C(=O)N[C@@H](CO)C(=O)N[C@H](C(=O)N[C@@H](CC(N)=O)C(=O)N[C@H](C(=O)NCC(=O)N[C@@H](CO)C(=O)N[C@@H](CCCNC(=N)N)C(=O)N[C@H](C(=O)N[C@@H](Cc1ccc(O)cc1)C(N)=O)[C@@H](C)O)C(C)C)[C@@H](C)O
notes: also called compound 52
B2: N^α1-[2-[2-[2-[[2-[2-[2-[[(4S)-4-carboxy-4-(19-carboxynonadecanoylamino)butanoyl]amino]ethoxy]ethoxy]acetyl]amino]ethoxy]ethoxy]acetyl]-[Glu14,Arg17,Pro21,Pro27 … (peptide)
peptide: KCNTATCATQRLAEFLRHSSPNFGAIPSSTNVGSNTY
modifications: alpha-amino group of N-terminal Lys1 acylated with C20 diacid via linker gGlu-2xOEG; disulfide bridge Cys2-Cys7 and C-terminal amide as in human amylin
notes: also called compound 19
B3: N^ε1-[2-[2-[2-[[2-[2-[2-[[(4S)-4-carboxy-4-(19-carboxynonadecanoylamino)butanoyl]amino]ethoxy]ethoxy]acetyl]amino]ethoxy]ethoxy]acetyl]-[Arg17,Pro21,Pro27,Glu35 … (peptide)
peptide: K([AEEA-AEEA-γGlu-C20 diacid])CNTATCATQRLANFLRHSSPNFGAIPSSTNVGSETY-NH2
modifications: disulfide 2-7; N-terminus assumed
SMILES: CC[C@H](C)[C@H](NC(=O)[C@H](C)NC(=O)CNC(=O)[C@H](Cc1ccccc1)NC(=O)[C@H](CC(N)=O)NC(=O)[C@@H]1CCCN1C(=O)[C@H](CO)NC(=O)[C@H](CO)NC(=O)[C@H](Cc1c[nH]cn1)NC(=O)[C@H](CCCNC(=N)N)NC(=O)[C@H](CC(C)C)NC(=O)[C@H](Cc1ccccc1)NC(=O)[C@H](CC(N)=O)NC(=O)[C@H](C)NC(=O)[C@H](CC(C)C)NC(=O)[C@H](CCCNC(=N)N)NC(=O)[C@H](CCC(N)=O)NC(=O)[C@@H](NC(=O)[C@H](C)NC(=O)[C@@H]1CSSC[C@H](NC(=O)[C@@H](N)CCCCNC(=O)COCCOCCNC(=O)COCCOCCNC(=O)CC[C@H](NC(=O)CCCCCCCCCCCCCCCCCCC(=O)O)C(=O)O)C(=O)N[C@@H](CC(N)=O)C(=O)N[C@@H]([C@@H](C)O)C(=O)N[C@@H](C)C(=O)N[C@@H]([C@@H](C)O)C(=O)N1)[C@@H](C)O)C(=O)N1CCC[C@H]1C(=O)N[C@@H](CO)C(=O)N[C@@H](CO)C(=O)N[C@H](C(=O)N[C@@H](CC(N)=O)C(=O)N[C@H](C(=O)NCC(=O)N[C@@H](CO)C(=O)N[C@@H](CCC(=O)O)C(=O)N[C@H](C(=O)N[C@@H](Cc1ccc(O)cc1)C(N)=O)[C@@H](C)O)C(C)C)[C@@H](C)O
notes: also called compound 25
B4: N^α1-[(4S)-4-carboxy-4-(19-carboxynonadecanoylamino)butanoyl]-[Arg17,Pro21,Pro27,His34]-h-amylin (peptide)
peptide: B2 peptide with E14N, S34H
modifications: alpha-amino group of N-terminal Lys1 acylated with C20 diacid via linker gGlu; disulfide bridge Cys2-Cys7 and C-terminal amide as in human amylin
notes: also called compound 40
B5: N^ε1-[2-[2-[2-[[(4S)-4-carboxy-4-(19-carboxynonadecanoylamino)butanoyl]amino]ethoxy]ethoxy]acetyl]-[Ala14,Arg17,Pro21,Pro27,Pro31]-h-amylin (peptide)
peptide: K([AEEA-γGlu-C20 diacid])CNTATCATQRLAAFLRHSSPNFGAIPSSTPVGSNTY-NH2
modifications: disulfide 2-7; N-terminus assumed
SMILES: CC[C@H](C)[C@H](NC(=O)[C@H](C)NC(=O)CNC(=O)[C@H](Cc1ccccc1)NC(=O)[C@H](CC(N)=O)NC(=O)[C@@H]1CCCN1C(=O)[C@H](CO)NC(=O)[C@H](CO)NC(=O)[C@H](Cc1c[nH]cn1)NC(=O)[C@H](CCCNC(=N)N)NC(=O)[C@H](CC(C)C)NC(=O)[C@H](Cc1ccccc1)NC(=O)[C@H](C)NC(=O)[C@H](C)NC(=O)[C@H](CC(C)C)NC(=O)[C@H](CCCNC(=N)N)NC(=O)[C@H](CCC(N)=O)NC(=O)[C@@H](NC(=O)[C@H](C)NC(=O)[C@@H]1CSSC[C@H](NC(=O)[C@@H](N)CCCCNC(=O)COCCOCCNC(=O)CC[C@H](NC(=O)CCCCCCCCCCCCCCCCCCC(=O)O)C(=O)O)C(=O)N[C@@H](CC(N)=O)C(=O)N[C@@H]([C@@H](C)O)C(=O)N[C@@H](C)C(=O)N[C@@H]([C@@H](C)O)C(=O)N1)[C@@H](C)O)C(=O)N1CCC[C@H]1C(=O)N[C@@H](CO)C(=O)N[C@@H](CO)C(=O)N[C@H](C(=O)N1CCC[C@H]1C(=O)N[C@H](C(=O)NCC(=O)N[C@@H](CO)C(=O)N[C@@H](CC(N)=O)C(=O)N[C@H](C(=O)N[C@@H](Cc1ccc(O)cc1)C(N)=O)[C@@H](C)O)C(C)C)[C@@H](C)O
notes: also called compound 72
B6: N^ε1-[2-[2-[2-[[(4S)-4-carboxy-4-(19-carboxynonadecanoylamino)butanoyl]amino]ethoxy]ethoxy]acetyl]-[Arg14,Arg17,Pro21,Pro27,Pro31]-h-amylin (peptide)
peptide: K([AEEA-γGlu-C20 diacid])CNTATCATQRLARFLRHSSPNFGAIPSSTPVGSNTY-NH2
modifications: disulfide 2-7; N-terminus assumed
SMILES: CC[C@H](C)[C@H](NC(=O)[C@H](C)NC(=O)CNC(=O)[C@H](Cc1ccccc1)NC(=O)[C@H](CC(N)=O)NC(=O)[C@@H]1CCCN1C(=O)[C@H](CO)NC(=O)[C@H](CO)NC(=O)[C@H](Cc1c[nH]cn1)NC(=O)[C@H](CCCNC(=N)N)NC(=O)[C@H](CC(C)C)NC(=O)[C@H](Cc1ccccc1)NC(=O)[C@H](CCCNC(=N)N)NC(=O)[C@H](C)NC(=O)[C@H](CC(C)C)NC(=O)[C@H](CCCNC(=N)N)NC(=O)[C@H](CCC(N)=O)NC(=O)[C@@H](NC(=O)[C@H](C)NC(=O)[C@@H]1CSSC[C@H](NC(=O)[C@@H](N)CCCCNC(=O)COCCOCCNC(=O)CC[C@H](NC(=O)CCCCCCCCCCCCCCCCCCC(=O)O)C(=O)O)C(=O)N[C@@H](CC(N)=O)C(=O)N[C@@H]([C@@H](C)O)C(=O)N[C@@H](C)C(=O)N[C@@H]([C@@H](C)O)C(=O)N1)[C@@H](C)O)C(=O)N1CCC[C@H]1C(=O)N[C@@H](CO)C(=O)N[C@@H](CO)C(=O)N[C@H](C(=O)N1CCC[C@H]1C(=O)N[C@H](C(=O)NCC(=O)N[C@@H](CO)C(=O)N[C@@H](CC(N)=O)C(=O)N[C@H](C(=O)N[C@@H](Cc1ccc(O)cc1)C(N)=O)[C@@H](C)O)C(C)C)[C@@H](C)O
notes: also called compound 64
B7: N^ε1-[(4S)-4-carboxy-4-(19-carboxynonadecanoylamino)butanoyl]-[Arg17,Pro21,Pro27]-h-amylin (peptide)
peptide: K([γGlu-C20 diacid])CNTATCATQRLANFLRHSSPNFGAIPSSTNVGSNTY-NH2
modifications: disulfide 2-7; N-terminus assumed
SMILES: CC[C@H](C)[C@H](NC(=O)[C@H](C)NC(=O)CNC(=O)[C@H](Cc1ccccc1)NC(=O)[C@H](CC(N)=O)NC(=O)[C@@H]1CCCN1C(=O)[C@H](CO)NC(=O)[C@H](CO)NC(=O)[C@H](Cc1c[nH]cn1)NC(=O)[C@H](CCCNC(=N)N)NC(=O)[C@H](CC(C)C)NC(=O)[C@H](Cc1ccccc1)NC(=O)[C@H](CC(N)=O)NC(=O)[C@H](C)NC(=O)[C@H](CC(C)C)NC(=O)[C@H](CCCNC(=N)N)NC(=O)[C@H](CCC(N)=O)NC(=O)[C@@H](NC(=O)[C@H](C)NC(=O)[C@@H]1CSSC[C@H](NC(=O)[C@@H](N)CCCCNC(=O)CC[C@H](NC(=O)CCCCCCCCCCCCCCCCCCC(=O)O)C(=O)O)C(=O)N[C@@H](CC(N)=O)C(=O)N[C@@H]([C@@H](C)O)C(=O)N[C@@H](C)C(=O)N[C@@H]([C@@H](C)O)C(=O)N1)[C@@H](C)O)C(=O)N1CCC[C@H]1C(=O)N[C@@H](CO)C(=O)N[C@@H](CO)C(=O)N[C@H](C(=O)N[C@@H](CC(N)=O)C(=O)N[C@H](C(=O)NCC(=O)N[C@@H](CO)C(=O)N[C@@H](CC(N)=O)C(=O)N[C@H](C(=O)N[C@@H](Cc1ccc(O)cc1)C(N)=O)[C@@H](C)O)C(C)C)[C@@H](C)O
notes: also called 48; compound 48

Positions count from the first letter of the chain named. Numbered stars: 1 amine (or outer) side, 2 acyl side, 3 side chain; on linkers, the order of the positions; unused ones are H or OH. Bridge positions count the residues as written; N and C are the ends. Side chains are listed from the residue outwards. Ends that are not written are not given here. * marks the point of attachment. C20 diacid = O=C(O)CCCCCCCCCCCCCCCCCCC(=O)*; γGlu = O=C(O)[C@H](CCC(=O)[*:2])N[*:1]; AEEA = NCCOCCOCC(=O)O

The first assay addresses T1, human calcitonin receptor. As to the kind of experiment: cell-based or functional assay.
For the molecule B1, the “hCTR funct. EC50” value turned out to be 14.1 nM.

A further assay addresses T2, human amylin 3(a) receptor (human …). The assay can be described thus: cell-based or functional assay.
For B2, the “Ratio hCT/hAmylin funct. (hCTR EC50 over hAmylin-R EC50)” value worked out at 17.4 and the “hAmylin-R funct. EC50 (pM)” value came to 307 pM. Turning to B3, the “Ratio hCT/hAmylin funct. (hCTR EC50 over hAmylin-R EC50)” value turned out to be 46.2 and the “hAmylin-R funct. EC50 (pM)” value was found to be 217 pM.

With B4, the “Ratio hCT/hAmylin funct. (hCTR EC50 over hAmylin-R EC50)” value is 16.4 and the “hAmylin-R funct. EC50 (pM)” value was found to be 164 pM. As to B5, the “Ratio hCT/hAmylin funct. (hCTR EC50 over hAmylin-R EC50)” value worked out at 44.9 and the “hAmylin-R funct. EC50 (pM)” value is 106 pM. With B6, the “Ratio hCT/hAmylin funct. (hCTR EC50 over hAmylin-R EC50)” value was 60.7 and the “hAmylin-R funct. EC50 (pM)” value amounted to 378 pM.

A further assay concerns the target T3, human amylin receptor (amylin 3(a) …). The assay can be described thus: SPA displacement of 125I-rat amylin, hAmylin 3(a) receptor membranes. The gist of the method: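 Cell membranes were prepared by homogenisation in Na-HEPES/EDTA buffer, pH 7.4, and stored at −80° C. They were then coupled to SPA beads at 35 ng/μL final and exposed to compounds in assay buffer containing CaCl2, MgCl₂, OA and Tween20. After 120 min at 25° C, plates were counted and IC₅₀ derived.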
On the technique in general: In a radioligand displacement assay an active substance lowers the binding of a labelled ligand.
As to B7, the IC50 was 0.443 nM.
